The source of these data is the Immune Epitope Database (IEDB).

One experiment has as its target HLA-B*07:02. In words: IEDB peptide-MHC binding, purified MHC/competitive/radioactivity; filed as Kd, often an IC50 or EC50 that approximates it; ≥ and ≤ were set here for values at or beyond the usual limits of such assays.
The target in the next experiment is HLA-B*35:01. The description is as above.
In a further experiment the target is HLA-B*51:01. The experiment is described as above.
A further experiment has as its target HLA-B*53:01. The description is as above.
Another experiment deals with HLA-B*54:01. Described as above.
For experiment [1], the target named is HLA-A*02:01. Nature of the experiment: IEDB peptide-MHC binding, purified MHC/competitive/fluorescence; ≥ and ≤ were set here for values at or beyond the usual limits of such assays.
The target in a further experiment is HLA-A*24:02. The experiment is described as above.
The next experiment has as its target HLA-A*30:01. Nature of the experiment: IEDB peptide-MHC binding, purified MHC/competitive/radioactivity; filed as Kd, often an IC50 or EC50 that approximates it; ≥ and ≤ were set here for values at or beyond the usual limits of such assays.
For experiment [2], the target named is HLA-A*02:01. Nature of the experiment: IEDB peptide-MHC binding, purified MHC/competitive/fluorescence; filed as Kd, often an IC50 or EC50 that approximates it; ≥ and ≤ were set here for values at or beyond the usual limits of such assays. Particulars: source organism: Human herpesvirus 4 strain B95-8.
In another experiment the target is HLA-A*01:01. Nature of the experiment: IEDB peptide-MHC binding, purified MHC/competitive/radioactivity; filed as Kd, often an IC50 or EC50 that approximates it; ≥ and ≤ were set here for values at or beyond the usual limits of such assays. Particulars: source organism: Dengue virus 2 Jamaica/1409/1983.
The mark [3] stands for this setting: source organism: Triticum aestivum.
The mark [4] stands for this setting: source organism: SARS coronavirus Tor2.
[5] abbreviates: source organism: Vaccinia virus.
The mark [6] stands for this setting: source organism: Vaccinia virus WR.
[7] abbreviates: source organism: Zaire ebolavirus.
Setting [8] is: source organism: Mammarenavirus brazilense.
The mark [9] stands for this setting: source organism: Sudan ebolavirus.
Where [10] appears, read: source organism: Human alphaherpesvirus 2.
Setting [11] is: source organism: Mammarenavirus machupoense.

For QPFPSQQPY, the Kd in the experiment with HLA-B*07:02 (setting [3]) is at least 77500 nM; with HLA-B*35:01 (setting [3]) it was 66.8 nM; in the experiment with HLA-B*51:01 (setting [3]), at least 43500 nM; with HLA-B*53:01 (setting [3]) it was 7550 nM; with HLA-B*54:01 (setting [3]), at least 78100 nM.
Regarding RPNHTIKGSF, the Kd in the experiment with HLA-B*07:02 (setting [4]) was 57.7 nM; with HLA-B*35:01 (setting [4]), at least 69900 nM; in the experiment with HLA-B*51:01 (setting [4]) it was at least 69600 nM; in the experiment with HLA-B*53:01 (setting [4]) it was at least 69900 nM; in the experiment with HLA-B*54:01 (setting [4]) it was at least 69900 nM.
On to IFGNLSPET, for which the IC50 was 47300 nM with HLA-A*02:01 [1] (setting [5]) and 14000 nM in the experiment with HLA-A*24:02 (setting [5]).
Take SPMLYQLLEA: the Kd is 94 nM in the experiment with HLA-B*07:02 (setting [6]); 143 nM with HLA-B*35:01 (setting [6]); at least 69600 nM with HLA-B*51:01 (setting [6]); 228 nM in the experiment with HLA-B*53:01 (setting [6]); 8.77 nM in the experiment with HLA-B*54:01 (setting [6]).
Regarding QDGLICGLR, the IC50 in the experiment with HLA-A*02:01 [1] (setting [7]) amounted to 13300 nM; in the experiment with HLA-A*24:02 (setting [7]), 428 nM.
As for HPFIYVIRHV, the Kd with HLA-B*07:02 (setting [6]) turned out to be 11700 nM; in the experiment with HLA-B*35:01 (setting [6]), 7040 nM; with HLA-B*51:01 (setting [6]), 1020 nM; with HLA-B*53:01 (setting [6]), 2010 nM; with HLA-B*54:01 (setting [6]), 2.71 nM.
In the case of NSRSTSLSV, in the experiment with HLA-A*30:01 (source organism: Dengue virus 2 Jamaica/1409/1983), the Kd turned out to be 14.9 nM.
Turning to KRTLTPQPME, in the experiment with HLA-A*30:01 (source organism: Dengue virus 3 Martinique/1243/1999), the Kd was 15100 nM.
Regarding MSVISNPSK, in the experiment with HLA-A*30:01 (setting [6]), the Kd was found to be 19.7 nM.
As for NPKASTISWM, the Kd with HLA-B*07:02 (setting [6]) was 94.7 nM; in the experiment with HLA-B*35:01 (setting [6]), 7660 nM; with HLA-B*51:01 (setting [6]) it was at least 69600 nM; in the experiment with HLA-B*53:01 (setting [6]), 8150 nM; with HLA-B*54:01 (setting [6]) it was at least 35900 nM.
With DPEYFDNERI, the dissociation constant (Kd) with HLA-B*07:02 (setting [6]) was at least 69600 nM; with HLA-B*35:01 (setting [6]), at least 34800 nM; with HLA-B*51:01 (setting [6]), 3860 nM; with HLA-B*53:01 (setting [6]), 1740 nM; in the experiment with HLA-B*54:01 (setting [6]), 2260 nM.
The like results for MPNESRVKQW were, in that order, 2390 nM, 2290 nM, at least 69600 nM, 30.4 nM and 5360 nM.
YLLEMLWRL: the Kd in the experiment with HLA-A*02:01 [2] worked out at 4.5 nM.
For the sequence LPTSIVVPI, the Kd is 124 nM with HLA-B*07:02 (setting [8]); 6.09 nM with HLA-B*35:01 (setting [8]); 75.8 nM with HLA-B*51:01 (setting [8]); 7.51 nM in the experiment with HLA-B*53:01 (setting [8]); 17.7 nM with HLA-B*54:01 (setting [8]).
With FTTNIWLKL, the Kd with HLA-A*01:01 is 1330 nM.
ITTAVKTVL: the IC50 in the experiment with HLA-A*02:01 [1] (setting [9]) worked out at 55300 nM; with HLA-A*24:02 (setting [9]) it was 37400 nM.
Consider GPHETITAL, for which the Kd with HLA-B*07:02 (setting [10]) was 1.4 nM; in the experiment with HLA-B*35:01 (setting [10]), 797 nM; in the experiment with HLA-B*51:01 (setting [10]), at least 77500 nM; in the experiment with HLA-B*53:01 (setting [10]), 3350 nM; with HLA-B*54:01 (setting [10]) it was 4850 nM.
Consider QPQEQVPLV, for which the Kd is at least 77500 nM with HLA-B*07:02 (setting [3]); at least 23700 nM with HLA-B*35:01 (setting [3]); 4830 nM in the experiment with HLA-B*51:01 (setting [3]); at least 36600 nM in the experiment with HLA-B*53:01 (setting [3]); 12100 nM in the experiment with HLA-B*54:01 (setting [3]).
Turning to AAMYQYIFL, the Kd with HLA-A*30:01 (setting [6]) is 7.53 nM.
YHKILTAGL: in the experiment with HLA-A*24:02 (setting [7]), the IC50 came to 7410 nM.
Take SPSGVYQCAM: the Kd with HLA-B*07:02 (setting [4]) is 6.09 nM; in the experiment with HLA-B*35:01 (setting [4]), 26.3 nM; in the experiment with HLA-B*51:01 (setting [4]) it was 1070 nM; with HLA-B*53:01 (setting [4]) it was 748 nM; with HLA-B*54:01 (setting [4]), 2810 nM.
Regarding NAICSAVPVD, the equilibrium dissociation constant (Kd) in the experiment with HLA-A*30:01 (source organism: Dengue virus 1 Brazil/97-11/1997) came out at 12100 nM.
As for MLNNSLYYM, the Kd is at least 77400 nM with HLA-B*07:02 (setting [11]); 8710 nM with HLA-B*35:01 (setting [11]); at least 36700 nM with HLA-B*51:01 (setting [11]); 9770 nM in the experiment with HLA-B*53:01 (setting [11]); at least 36700 nM with HLA-B*54:01 (setting [11]).

The term Kd denotes the constant that tells how readily two partners part at equilibrium. For orientation: IC50 means the concentration needed to halve the response being measured. High values mean weaker potency in that assay, low ones greater potency in that assay.
